Assay results: the supplement of paper PMC9112550, “Optimization of the antimicrobial peptide Bac7 by deep mutational scanning” (BMC Biology, 2022)

System: Escherichia coli TOP10
Experiment: shrunken log2 fold change of peptide-encoding DNA abundance (4.5 h post-induction vs induction); higher = less antimicrobial activity (less host growth inhibition)
Details: time post-induction: 4.5 h; library: site-saturation at positions 5, 18, 19, 20
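Further: peptides expressed intracellularly from a pBAD plasmid library in pooled LB shake-flask culture, induced with 0.3% L-arabinose, DNA abundance read by NGS, three biological replicates, DESeq2 with apeglm shrinkage.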

Row | Sequence | shrunken log2 fold change
1 | RRIRCRPPRLPRPRPRPKKNPRP | 0.24
2 | RRIRCRPPRLPRPRPRPKLAPRP | 0.551
3 | RRIRCRPPRLPRPRPRPKLEPRP | -0.125
4 | RRIRCRPPRLPRPRPRPKLGPRP | 0.0989
5 | RRIRCRPPRLPRPRPRPKMWPRP | 1.22
6 | RRIRCRPPRLPRPRPRPKNAPRP | -0.103
7 | RRIRCRPPRLPRPRPRPKPAPRP | 0.288
8 | RRIRCRPPRLPRPRPRPKQGPRP | 0.261
9 | RRIRCRPPRLPRPRPRPKQKPRP | 0.0322
10 | RRIRCRPPRLPRPRPRPKRDPRP | 5.21
11 | RRIRCRPPRLPRPRPRPKRQPRP | 0.13
12 | RRIRCRPPRLPRPRPRPKRRPRP | 0.0984
13 | RRIRCRPPRLPRPRPRPKSWPRP | 0.323
14 | RRIRCRPPRLPRPRPRPKVIPRP | -0.297
15 | RRIRCRPPRLPRPRPRPKWGPRP | 0.496
16 | RRIRCRPPRLPRPRPRPLAGPRP | 0.153
17 | RRIRCRPPRLPRPRPRPLATPRP | 0.146
18 | RRIRCRPPRLPRPRPRPLCPPRP | -0.254
19 | RRIRCRPPRLPRPRPRPLDGPRP | -0.151
20 | RRIRCRPPRLPRPRPRPLDIPRP | -0.422
21 | RRIRCRPPRLPRPRPRPLESPRP | 0.0242
22 | RRIRCRPPRLPRPRPRPLFNPRP | -0.665
23 | RRIRCRPPRLPRPRPRPLGVPRP | 0.0123
24 | RRIRCRPPRLPRPRPRPLKNPRP | -0.208
25 | RRIRCRPPRLPRPRPRPLLHPRP | -0.319

Row | Sequence | shrunken log2 fold change
26 | RRIRCRPPRLPRPRPRPLLKPRP | -0.185
27 | RRIRCRPPRLPRPRPRPLLNPRP | -0.39
28 | RRIRCRPPRLPRPRPRPLMDPRP | -0.256
29 | RRIRCRPPRLPRPRPRPLNDPRP | 0.0553
30 | RRIRCRPPRLPRPRPRPLNHPRP | 0.519
31 | RRIRCRPPRLPRPRPRPLPWPRP | 0.195
32 | RRIRCRPPRLPRPRPRPLRWPRP | 0.613
33 | RRIRCRPPRLPRPRPRPLSMPRP | -0.207
34 | RRIRCRPPRLPRPRPRPLSYPRP | -1.29
35 | RRIRCRPPRLPRPRPRPLTIPRP | -0.66
36 | RRIRCRPPRLPRPRPRPLYAPRP | -0.3
37 | RRIRCRPPRLPRPRPRPLYQPRP | -0.543
38 | RRIRCRPPRLPRPRPRPLYVPRP | -0.833
39 | RRIRCRPPRLPRPRPRPMAAPRP | 0.476
40 | RRIRCRPPRLPRPRPRPMAQPRP | -0.0404
41 | RRIRCRPPRLPRPRPRPMCMPRP | -0.232
42 | RRIRCRPPRLPRPRPRPMEHPRP | -0.0605
43 | RRIRCRPPRLPRPRPRPMEIPRP | -1.16
44 | RRIRCRPPRLPRPRPRPMEQPRP | -0.00403
45 | RRIRCRPPRLPRPRPRPMFCPRP | -0.237
46 | RRIRCRPPRLPRPRPRPMGGPRP | 0.145
47 | RRIRCRPPRLPRPRPRPMHDPRP | 0.0244
48 | RRIRCRPPRLPRPRPRPMHYPRP | -0.24
49 | RRIRCRPPRLPRPRPRPMICPRP | -0.0738
50 | RRIRCRPPRLPRPRPRPMIVPRP | 0.0976

Row | Sequence | shrunken log2 fold change
51 | RRIRCRPPRLPRPRPRPMKNPRP | -0.128
52 | RRIRCRPPRLPRPRPRPMKWPRP | 0.0655
53 | RRIRCRPPRLPRPRPRPMMIPRP | -0.044
54 | RRIRCRPPRLPRPRPRPMMPPRP | -0.11
55 | RRIRCRPPRLPRPRPRPMMTPRP | 0.00323
56 | RRIRCRPPRLPRPRPRPMNDPRP | -0.44
57 | RRIRCRPPRLPRPRPRPMNSPRP | -0.141
58 | RRIRCRPPRLPRPRPRPMRKPRP | 0.249
59 | RRIRCRPPRLPRPRPRPMRNPRP | 0.185
60 | RRIRCRPPRLPRPRPRPMTKPRP | 0.0306
61 | RRIRCRPPRLPRPRPRPMTSPRP | -0.0603
62 | RRIRCRPPRLPRPRPRPMWQPRP | 0.183
63 | RRIRCRPPRLPRPRPRPMYQPRP | -0.265
64 | RRIRCRPPRLPRPRPRPNAFPRP | 0.0246
65 | RRIRCRPPRLPRPRPRPNETPRP | -0.0198
66 | RRIRCRPPRLPRPRPRPNGVPRP | -0.216
67 | RRIRCRPPRLPRPRPRPNHCPRP | -0.551
68 | RRIRCRPPRLPRPRPRPNHGPRP | -0.746
69 | RRIRCRPPRLPRPRPRPNHIPRP | -0.994
70 | RRIRCRPPRLPRPRPRPNHMPRP | -0.255
71 | RRIRCRPPRLPRPRPRPNHSPRP | -0.936
72 | RRIRCRPPRLPRPRPRPNHYPRP | -0.825
73 | RRIRCRPPRLPRPRPRPNKCPRP | -0.279
74 | RRIRCRPPRLPRPRPRPNLLPRP | -0.572
75 | RRIRCRPPRLPRPRPRPNLQPRP | -0.506

Row | Sequence | shrunken log2 fold change
76 | RRIRCRPPRLPRPRPRPNLSPRP | -0.431
77 | RRIRCRPPRLPRPRPRPNMNPRP | -0.88
78 | RRIRCRPPRLPRPRPRPNNPPRP | -0.681
79 | RRIRCRPPRLPRPRPRPNQGPRP | -0.203
80 | RRIRCRPPRLPRPRPRPNQRPRP | -0.093
81 | RRIRCRPPRLPRPRPRPNRFPRP | 2.96
82 | RRIRCRPPRLPRPRPRPNRSPRP | -0.359
83 | RRIRCRPPRLPRPRPRPNTMPRP | -0.682
84 | RRIRCRPPRLPRPRPRPNTNPRP | -0.66
85 | RRIRCRPPRLPRPRPRPNTSPRP | -0.343
86 | RRIRCRPPRLPRPRPRPNTTPRP | -0.291
87 | RRIRCRPPRLPRPRPRPNVAPRP | 0.0221
88 | RRIRCRPPRLPRPRPRPNVTPRP | 0.632
89 | RRIRCRPPRLPRPRPRPNWAPRP | -0.336
90 | RRIRCRPPRLPRPRPRPNYHPRP | -0.93
91 | RRIRCRPPRLPRPRPRPPAVPRP | 0.645
92 | RRIRCRPPRLPRPRPRPPDDPRP | 0.523
93 | RRIRCRPPRLPRPRPRPPDGPRP | -0.0323
94 | RRIRCRPPRLPRPRPRPPDMPRP | -0.000808
95 | RRIRCRPPRLPRPRPRPPEHPRP | 0.0824
96 | RRIRCRPPRLPRPRPRPPFLPRP | -0.0759
97 | RRIRCRPPRLPRPRPRPPFRPRP | 0.377
98 | RRIRCRPPRLPRPRPRPPGNPRP | 0.0392
99 | RRIRCRPPRLPRPRPRPPHFPRP | 0.872
100 | RRIRCRPPRLPRPRPRPPIGPRP | -0.079

Row | Sequence | shrunken log2 fold change
101 | RRIRCRPPRLPRPRPRPPITPRP | -0.286
102 | RRIRCRPPRLPRPRPRPPKNPRP | 0.5
103 | RRIRCRPPRLPRPRPRPPKTPRP | -0.00862
104 | RRIRCRPPRLPRPRPRPPKYPRP | -0.291
105 | RRIRCRPPRLPRPRPRPPMDPRP | 0.0314
106 | RRIRCRPPRLPRPRPRPPMPPRP | 0.45
107 | RRIRCRPPRLPRPRPRPPMQPRP | 0.516
108 | RRIRCRPPRLPRPRPRPPNCPRP | 0.0348
109 | RRIRCRPPRLPRPRPRPPNHPRP | -0.104
110 | RRIRCRPPRLPRPRPRPPNNPRP | -0.138
111 | RRIRCRPPRLPRPRPRPPNSPRP | 0.0267
112 | RRIRCRPPRLPRPRPRPPNYPRP | -0.376
113 | RRIRCRPPRLPRPRPRPPPFPRP | 2.05
114 | RRIRCRPPRLPRPRPRPPPSPRP | 1.61
115 | RRIRCRPPRLPRPRPRPPRDPRP | 0.84
116 | RRIRCRPPRLPRPRPRPPRGPRP | 0.67
117 | RRIRCRPPRLPRPRPRPPRQPRP | 0.589
118 | RRIRCRPPRLPRPRPRPPSCPRP | -0.0847
119 | RRIRCRPPRLPRPRPRPPVFPRP | 0.0601
120 | RRIRCRPPRLPRPRPRPPVYPRP | 0.000934
121 | RRIRCRPPRLPRPRPRPPWQPRP | 0.389
122 | RRIRCRPPRLPRPRPRPPWSPRP | 0.175
123 | RRIRCRPPRLPRPRPRPPYAPRP | 0.141
124 | RRIRCRPPRLPRPRPRPQCGPRP | -0.609
125 | RRIRCRPPRLPRPRPRPQCQPRP | 0.0557

Row | Sequence | shrunken log2 fold change
126 | RRIRCRPPRLPRPRPRPQDMPRP | 0.0633
127 | RRIRCRPPRLPRPRPRPQENPRP | -0.0731
128 | RRIRCRPPRLPRPRPRPQFIPRP | -0.866
129 | RRIRCRPPRLPRPRPRPQFQPRP | -0.606
130 | RRIRCRPPRLPRPRPRPQFSPRP | -0.145
131 | RRIRCRPPRLPRPRPRPQFVPRP | -0.419
132 | RRIRCRPPRLPRPRPRPQGTPRP | -0.35
133 | RRIRCRPPRLPRPRPRPQHAPRP | -0.0229
134 | RRIRCRPPRLPRPRPRPQHGPRP | -0.211
135 | RRIRCRPPRLPRPRPRPQHVPRP | -0.199
136 | RRIRCRPPRLPRPRPRPQIVPRP | -0.345
137 | RRIRCRPPRLPRPRPRPQKGPRP | -0.133
138 | RRIRCRPPRLPRPRPRPQKHPRP | -0.0816
139 | RRIRCRPPRLPRPRPRPQLCPRP | 0.192
140 | RRIRCRPPRLPRPRPRPQMEPRP | 0.04
141 | RRIRCRPPRLPRPRPRPQMVPRP | 0.151
142 | RRIRCRPPRLPRPRPRPQNCPRP | 0.137
143 | RRIRCRPPRLPRPRPRPQNGPRP | 0.0924
144 | RRIRCRPPRLPRPRPRPQNIPRP | -0.237
145 | RRIRCRPPRLPRPRPRPQRRPRP | -0.023
146 | RRIRCRPPRLPRPRPRPQVRPRP | -0.236
147 | RRIRCRPPRLPRPRPRPQVWPRP | -0.0474
148 | RRIRCRPPRLPRPRPRPQWAPRP | 0.0425
149 | RRIRCRPPRLPRPRPRPQYAPRP | -0.231
150 | RRIRCRPPRLPRPRPRPQYSPRP | -0.273
